The record followed here is paper PMC2651784.

For one data set, the target named is Hsf;Ttk69 (Drosophila melanogaster?;Drosophila …, UniProt P22813;P17789 1-691;1-643, |). Nature of the data set: EMSA. For orientation: A gel shift assay detects complexes by their altered migration in electrophoresis.
Data set [1] concerns the target T1, GAF (GAGA factor);Hsf-S378D (Drosophila melanogaster?;Drosophila …, UniProt Q08605;P22813 1-582;1-691, |S378D).
T1 sequence 1: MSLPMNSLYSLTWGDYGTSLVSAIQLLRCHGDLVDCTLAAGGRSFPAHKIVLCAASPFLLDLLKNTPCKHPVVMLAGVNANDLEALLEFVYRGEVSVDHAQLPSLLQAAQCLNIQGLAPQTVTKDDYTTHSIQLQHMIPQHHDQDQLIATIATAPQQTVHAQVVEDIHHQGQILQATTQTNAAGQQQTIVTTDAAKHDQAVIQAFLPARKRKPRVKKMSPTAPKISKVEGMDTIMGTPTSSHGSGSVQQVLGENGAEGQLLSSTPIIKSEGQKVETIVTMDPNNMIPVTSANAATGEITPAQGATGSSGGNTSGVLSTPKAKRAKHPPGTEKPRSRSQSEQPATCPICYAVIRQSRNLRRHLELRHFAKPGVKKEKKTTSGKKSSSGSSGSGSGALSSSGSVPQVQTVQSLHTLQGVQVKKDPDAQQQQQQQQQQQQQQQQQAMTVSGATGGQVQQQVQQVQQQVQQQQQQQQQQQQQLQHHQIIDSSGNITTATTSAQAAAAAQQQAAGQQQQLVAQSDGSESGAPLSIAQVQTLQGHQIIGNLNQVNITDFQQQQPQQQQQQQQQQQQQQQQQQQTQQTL
T1 sequence 2: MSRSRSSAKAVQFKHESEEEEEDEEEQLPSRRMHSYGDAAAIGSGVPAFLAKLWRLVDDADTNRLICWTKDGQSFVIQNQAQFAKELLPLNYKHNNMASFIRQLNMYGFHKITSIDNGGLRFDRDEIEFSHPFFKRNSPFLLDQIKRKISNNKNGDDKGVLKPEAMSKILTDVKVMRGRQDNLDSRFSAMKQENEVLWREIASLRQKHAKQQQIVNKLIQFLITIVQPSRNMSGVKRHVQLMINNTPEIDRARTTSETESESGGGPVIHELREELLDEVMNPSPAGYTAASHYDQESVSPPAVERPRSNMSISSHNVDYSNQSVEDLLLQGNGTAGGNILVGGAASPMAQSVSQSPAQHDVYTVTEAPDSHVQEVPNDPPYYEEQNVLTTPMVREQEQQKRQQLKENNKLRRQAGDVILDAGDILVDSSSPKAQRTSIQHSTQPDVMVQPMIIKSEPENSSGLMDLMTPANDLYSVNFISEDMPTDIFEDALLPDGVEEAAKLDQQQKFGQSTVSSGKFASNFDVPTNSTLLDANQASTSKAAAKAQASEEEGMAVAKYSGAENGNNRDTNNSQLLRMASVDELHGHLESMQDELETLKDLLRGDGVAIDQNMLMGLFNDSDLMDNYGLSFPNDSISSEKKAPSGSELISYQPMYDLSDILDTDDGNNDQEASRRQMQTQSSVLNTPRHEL
The experiment in a line: EMSA.

Another data set deals with Ttk69 (UniProt P17789 1-643). Nature of the data set: EMSA.
The next data set addresses GAF (GAGA factor);Ttk69 (Drosophila melanogaster?;Drosophila …, UniProt Q08605;P17789 1-582;1-643, |). The experiment in a line: EMSA.
A further data set has as its target T2, Hsf (UniProt P22813 1-691).
T2 sequence: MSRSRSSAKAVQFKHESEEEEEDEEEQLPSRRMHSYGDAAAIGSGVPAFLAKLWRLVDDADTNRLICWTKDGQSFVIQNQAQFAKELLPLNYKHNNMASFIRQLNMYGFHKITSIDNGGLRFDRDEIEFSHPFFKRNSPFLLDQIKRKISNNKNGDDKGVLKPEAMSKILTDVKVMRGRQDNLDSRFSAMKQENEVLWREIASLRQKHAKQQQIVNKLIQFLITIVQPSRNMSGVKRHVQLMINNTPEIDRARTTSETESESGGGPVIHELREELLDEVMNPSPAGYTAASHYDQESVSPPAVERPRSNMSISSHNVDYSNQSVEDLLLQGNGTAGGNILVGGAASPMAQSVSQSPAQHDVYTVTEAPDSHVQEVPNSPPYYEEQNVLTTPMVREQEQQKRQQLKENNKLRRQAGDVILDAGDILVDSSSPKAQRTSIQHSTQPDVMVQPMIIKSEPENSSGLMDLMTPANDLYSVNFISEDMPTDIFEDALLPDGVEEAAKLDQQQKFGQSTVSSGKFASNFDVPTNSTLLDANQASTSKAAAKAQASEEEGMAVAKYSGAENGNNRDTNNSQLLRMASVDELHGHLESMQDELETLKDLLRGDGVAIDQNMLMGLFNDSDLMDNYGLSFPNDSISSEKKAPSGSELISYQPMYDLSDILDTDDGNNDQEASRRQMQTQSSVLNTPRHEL
The experiment in a line: EMSA.

Another data set addresses T3, GAF (GAGA factor) (UniProt Q08605 1-582).
T3 sequence: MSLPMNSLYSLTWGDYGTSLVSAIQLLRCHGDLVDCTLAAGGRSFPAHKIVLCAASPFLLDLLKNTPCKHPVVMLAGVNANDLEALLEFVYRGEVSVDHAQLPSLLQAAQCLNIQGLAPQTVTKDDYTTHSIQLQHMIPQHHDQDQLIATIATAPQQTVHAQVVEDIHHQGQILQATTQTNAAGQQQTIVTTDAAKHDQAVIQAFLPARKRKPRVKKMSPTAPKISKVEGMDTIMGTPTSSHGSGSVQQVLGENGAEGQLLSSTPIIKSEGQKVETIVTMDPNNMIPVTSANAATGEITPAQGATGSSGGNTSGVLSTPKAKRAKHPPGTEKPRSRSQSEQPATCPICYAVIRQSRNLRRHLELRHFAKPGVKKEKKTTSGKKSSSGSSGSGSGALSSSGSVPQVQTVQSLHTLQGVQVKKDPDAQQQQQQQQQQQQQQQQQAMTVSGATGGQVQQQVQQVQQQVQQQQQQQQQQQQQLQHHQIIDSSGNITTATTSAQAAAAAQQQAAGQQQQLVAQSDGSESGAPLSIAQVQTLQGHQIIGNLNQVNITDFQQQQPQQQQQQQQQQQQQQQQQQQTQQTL
Nature of the data set: EMSA.

Data set [2] has as its target T4, GAF (GAGA factor);Hsf;Ttk69 (Drosophila melanogaster?;Drosophila …, UniProt Q08605;P22813;P17789 1-582;1-691;1-643, ||). The experiment in a line: competition.
The target of data set [3] is T4, GAF (GAGA factor);Hsf;Ttk69. Nature of the data set: competition. This is another data set of the same source.

Where two headings read alike, the source gives them in different places.

B1: tor-RE 25-bp probe (dsDNA)
DNA 1: CGTTCCTTGCTCAATGAATTTTTCG
DNA 2: CGAAAAATTCATTGAGCAAGGAACG
Regarding B1, the binding result with Hsf;Ttk69 is given as “no binding”; in data set [1], “binds”; with Ttk69 it was “no binding”; with Hsf, “no binding”; with GAF (GAGA factor), “binds”. This molecule had a binding signal with GAF (GAGA factor);Ttk69 of 5 fold vs GAF alone.

B2: TBS competitor (dsDNA)
DNA 1: TCCTCATGGTCCTGCCGAGCAG
DNA 2: CTGCTCGGCAGGACCATGAGGA
With B2, the binding result in data set [2] was “no binding”.

B3: HSE competitor (dsDNA)
DNA 1: CGCCTCGAATGTTCGCGAAAAGAGCGCCGG
DNA 2: CCGGCGCTCTTTTCGCGAACATTCGAGGCG
Regarding B3, the binding result in data set [3] is on record as “binds”.
